The values that follow come from publication PMC11423973 (2024).

The target in the experiment is SFTSV Gn head domain (Severe fever with thrombocytopenia …). Put plainly: BLI.

B1: c40C10 (human IgG1 antibody with the heavy and light chain variable regions of mAb 40C10) (antibody, V domains shown)
VH: EVQLQQSGAELVKPGASVKLSCKASGYTFTSHYMYWVKQRPGQGPEWIGEINPTNGGTKFNEKFKSKATLTVDKSSSTAYIQLSSLTSEDSAVYYCSSSGYDYDGRAYFDYWGQGTTLTVSS
VL: DVVMTQTPKFLLVSAGDRVTITCKASQSVSNDVAWYQQKPGQSPKLLIYYASYRYTGVPDRFTGSGYGTDFTFTISAVQAEDLAVYFCQQNYNSPYTFGGGTKLEIK
As a reminder, the Kd is the constant that tells how readily two partners part at equilibrium. The low end stands for a tighter complex, the high end for a looser complex. As for B1, the Kd came to 582 pM.
